Reference: patent US20140301990A1

Key:
Assay in all cases: cell_activity
[1] = test system: TALEN 101540 (engineered); conditions: pair with 101536, K562; 9.6 with 101537
[2] = test system: TALEN 101539 (engineered); conditions: pair with 101536, K562; 0.0 with 101537
[3] = test system: TALEN 101537 (engineered); conditions: pair with 101541, K562; 9.6 with 101540, 0.0 with 101539
[4] = test system: TALEN 101513 (engineered); conditions: pair with 101516, K562; 5.9 with 101514, 8.3 with 101515
[5] = test system: TALEN 101511 (engineered); conditions: pair with 101515, K562; 3.4 with 101514, 5.3 with 101516
[6] = test system: TALEN 101512 (engineered); conditions: pair with 101516, K562; 5.3 with 101514, 8.9 with 101515
[7] = test system: TALEN 101516 (engineered); conditions: pair with 101513, K562
[8] = test system: TALEN 101515 (engineered); conditions: pair with 101512, K562
[9] = test system: ZFN 16787 (TRBC) (engineered); conditions: pair with 16783, K562 day 3; 15.6 day 10; Table 6 8.73 TRBC1, 8.68 TRBC2
[10] = test system: ZFN 22409 (TRBC) (engineered); conditions: pair with 16783, K562 day 10
[11] = test system: ZFN 22449 (TRBC) (engineered); conditions: pair with 16783, K562 day 3; 8.1 day 10
[12] = test system: ZFN 22454 (TRBC) (engineered); conditions: pair with 16783, K562 day 3; 12.1 day 10
[13] = test system: TALEN 101536 (engineered); conditions: pair with 101541, K562; 8.5 with 101539, 9.9 with 101540
[14] = test system: TALEN 101514 (engineered); conditions: pair with 101513, K562

Q: With “CTGGGTCCACTCGTCATTC (double strand) [101540 site]” as the sequence, how does the activity [1] read?
A: 9.9 % NHEJ

Q: How did the activity [2] turn out when “CTGGGTCCACTCGTCATTCT (double strand) [101539 site]” was run?
A: 8.5 % NHEJ

Q: How did the activity [3] turn out when “CTGTCAAGTCCAGTTCTA (double strand) [101537 site]” was run?
A: 9.9 % NHEJ

Q: “CTGTGGCCTGGAGCAACAA (double strand) [101513 site]” was tested. Which activity [4] did it give?
A: 16.4 % NHEJ

Q: With “GTGCTGTGGCCTGGAGCAA (double strand) [101511 site]” as the sequence, how does the activity [5] read?
A: 5.9 % NHEJ

Q: With “GTGCTGTGGCCTGGAGCAAC (double strand) [101512 site]” as the sequence, how does the activity [6] read?
A: 12 % NHEJ

Q: Which activity [7] does the source give for “GTTGAAGGCGTTTGCACATG (double strand) [101516 site]” here?
A: 16.4 % NHEJ

Q: “GTTGAAGGCGTTTGCACATGC (double strand) [101515 site]” was tested. Which activity [8] did it give?
A: 8.9 % NHEJ

Q: With “TCTCGGAGAATGACGAGTGGACCCAGGA (double strand) [TRBC 16787 site]” as the sequence, how does the activity [9] read?
A: 12.1 % NHEJ

Q: What about the activity [10] of the same sequence?
A: 14.7 % NHEJ

Q: What about the activity [11] of the same sequence?
A: 20.1 % NHEJ

Q: What about the activity [12] of the same sequence?
A: 17.7 % NHEJ

Q: How did the activity [13] turn out when “TTCCGCTGTCAAGTCCAGTTC (double strand) [101536 site]” was run?
A: 15 % NHEJ

Q: “TTGAAGGCGTTTGCACATGCA (double strand) [101514 site]” was tested. Which activity [14] did it give?
A: 5.9 % NHEJ
